Assay [1] deals with StayGold (CU17S/V168A) (Cytaeis uchidae). In words: AUC; sedimentation equilibrium; purified recombinant StayGold at 2.8 uM in 50 mM HEPES-NaOH (pH 7.4), 24 C, absorbance at 497 nm.
The target is the same in assay [2]. Description: pseudonative SDS-PAGE; non-heated protein samples separated on 10% polyacrylamide gels.

As for “StayGold (CU17S/V168A) (natural protein)”, the stoichiometry N in assay [1] and in assay [2] was 2 in each case.

The record behind these values is PMC9287174.
